According to patent publication US20030186325A1 (GlaxoSmithKline, published 2003):
One block for each binder: values may come before it.

Columns and labels:
α5β1 integrin [1] = biological target: T1, α5β1 integrin (UniProt P08648 42-1049; P05556 21-798); assay: J6 cell adhesion to coated GST fusion that is left in the presence of BIO1211
T1 construct: whole, on cells; Endogenous integrin on J6 cells

α4β1 integrin [2] = biological target: T2, α4β1 integrin (UniProt P13612 34-1032; P05556 21-798); assay: J6 cell adhesion to coated GST fusion, with and without BIO1211
T2 construct: whole, on cells; Endogenous integrin on the J6 and HL60 cell lines; adhesion run with 0.2 mM MnCl2 (and TPA for HL60); also called α4 integrin on J6 and HL60 cells

α4β1 integrin [3] = biological target: T2, α4β1 integrin; assay: adhesion of J6 and HL60 cells to coated GST fusion with function blocking antibodies
Description: Cells were incubated for 35 minutes at 37° C. in the presence of or absence of various function blocking anti-integrin antibodies at 10 μg/ml. To prebind the antibodies cells were preincubated on ice for 10 minutes before being moved to 37° C. Each data point represents the mean±SD of duplicate points. […] To stimulate α4β1 binding to OPN, 50 ng/ml TPA was also included. Cells were incubated for 35 minutes at 37° C. in the presence or absence of various function blocking anti-integrin antibodies at 10 μg/ml. To prebind the antibodies cells were preincubated on ice for 10 minutes before being moved to 37° C. Each data point represents the mean±SD of duplicate points.

α5β1 integrin [4] = biological target: T1, α5β1 integrin; assay: J6 cell adhesion to coated GST fusion in the presence of BIO1211

T2 sequence (P13612 34-1032, chain 1 of 2): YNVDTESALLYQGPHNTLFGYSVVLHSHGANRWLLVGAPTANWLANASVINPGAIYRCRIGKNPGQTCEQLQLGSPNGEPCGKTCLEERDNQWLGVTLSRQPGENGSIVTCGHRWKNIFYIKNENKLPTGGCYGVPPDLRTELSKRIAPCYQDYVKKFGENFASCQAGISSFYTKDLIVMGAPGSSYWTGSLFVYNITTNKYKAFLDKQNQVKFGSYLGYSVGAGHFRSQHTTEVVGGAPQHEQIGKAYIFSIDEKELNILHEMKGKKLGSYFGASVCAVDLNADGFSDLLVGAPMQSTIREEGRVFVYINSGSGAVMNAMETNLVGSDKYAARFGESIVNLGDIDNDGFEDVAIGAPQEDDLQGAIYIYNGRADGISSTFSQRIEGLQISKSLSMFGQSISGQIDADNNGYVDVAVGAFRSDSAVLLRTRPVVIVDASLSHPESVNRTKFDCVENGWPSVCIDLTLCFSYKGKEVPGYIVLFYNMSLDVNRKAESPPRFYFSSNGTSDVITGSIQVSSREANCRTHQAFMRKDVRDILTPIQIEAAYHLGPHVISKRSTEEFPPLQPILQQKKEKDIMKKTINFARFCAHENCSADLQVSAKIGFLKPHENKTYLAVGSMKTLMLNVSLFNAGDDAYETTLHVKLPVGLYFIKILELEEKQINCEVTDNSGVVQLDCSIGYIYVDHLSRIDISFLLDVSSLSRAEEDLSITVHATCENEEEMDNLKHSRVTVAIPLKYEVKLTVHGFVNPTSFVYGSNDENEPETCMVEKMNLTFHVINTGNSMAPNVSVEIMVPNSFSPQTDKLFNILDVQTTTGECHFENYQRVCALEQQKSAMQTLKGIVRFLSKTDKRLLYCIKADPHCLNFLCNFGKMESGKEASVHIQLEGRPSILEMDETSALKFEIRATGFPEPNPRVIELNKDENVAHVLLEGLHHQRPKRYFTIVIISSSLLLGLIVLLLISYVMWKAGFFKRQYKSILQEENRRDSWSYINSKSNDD
T2 sequence (P05556 21-798, chain 2 of 2): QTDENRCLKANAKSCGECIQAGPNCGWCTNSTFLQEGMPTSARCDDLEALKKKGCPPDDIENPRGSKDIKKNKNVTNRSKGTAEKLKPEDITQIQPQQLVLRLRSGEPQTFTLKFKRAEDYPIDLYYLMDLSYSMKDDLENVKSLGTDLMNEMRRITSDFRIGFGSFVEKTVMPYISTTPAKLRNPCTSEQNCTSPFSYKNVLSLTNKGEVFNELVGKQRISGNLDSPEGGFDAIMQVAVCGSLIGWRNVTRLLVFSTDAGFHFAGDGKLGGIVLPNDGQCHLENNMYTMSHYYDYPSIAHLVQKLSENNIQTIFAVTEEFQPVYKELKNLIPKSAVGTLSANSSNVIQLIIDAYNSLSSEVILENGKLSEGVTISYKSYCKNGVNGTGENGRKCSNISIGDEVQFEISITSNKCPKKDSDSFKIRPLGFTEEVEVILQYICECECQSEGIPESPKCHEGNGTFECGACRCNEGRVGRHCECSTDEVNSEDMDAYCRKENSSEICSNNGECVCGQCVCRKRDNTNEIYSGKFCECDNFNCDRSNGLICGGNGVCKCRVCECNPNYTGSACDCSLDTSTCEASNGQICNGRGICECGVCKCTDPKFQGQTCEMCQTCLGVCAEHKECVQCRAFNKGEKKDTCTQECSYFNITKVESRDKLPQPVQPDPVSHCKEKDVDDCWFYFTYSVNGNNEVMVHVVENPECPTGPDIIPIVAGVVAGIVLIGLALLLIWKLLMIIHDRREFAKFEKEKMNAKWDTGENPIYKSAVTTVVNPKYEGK
T1 sequence (P08648 42-1049, chain 1 of 2): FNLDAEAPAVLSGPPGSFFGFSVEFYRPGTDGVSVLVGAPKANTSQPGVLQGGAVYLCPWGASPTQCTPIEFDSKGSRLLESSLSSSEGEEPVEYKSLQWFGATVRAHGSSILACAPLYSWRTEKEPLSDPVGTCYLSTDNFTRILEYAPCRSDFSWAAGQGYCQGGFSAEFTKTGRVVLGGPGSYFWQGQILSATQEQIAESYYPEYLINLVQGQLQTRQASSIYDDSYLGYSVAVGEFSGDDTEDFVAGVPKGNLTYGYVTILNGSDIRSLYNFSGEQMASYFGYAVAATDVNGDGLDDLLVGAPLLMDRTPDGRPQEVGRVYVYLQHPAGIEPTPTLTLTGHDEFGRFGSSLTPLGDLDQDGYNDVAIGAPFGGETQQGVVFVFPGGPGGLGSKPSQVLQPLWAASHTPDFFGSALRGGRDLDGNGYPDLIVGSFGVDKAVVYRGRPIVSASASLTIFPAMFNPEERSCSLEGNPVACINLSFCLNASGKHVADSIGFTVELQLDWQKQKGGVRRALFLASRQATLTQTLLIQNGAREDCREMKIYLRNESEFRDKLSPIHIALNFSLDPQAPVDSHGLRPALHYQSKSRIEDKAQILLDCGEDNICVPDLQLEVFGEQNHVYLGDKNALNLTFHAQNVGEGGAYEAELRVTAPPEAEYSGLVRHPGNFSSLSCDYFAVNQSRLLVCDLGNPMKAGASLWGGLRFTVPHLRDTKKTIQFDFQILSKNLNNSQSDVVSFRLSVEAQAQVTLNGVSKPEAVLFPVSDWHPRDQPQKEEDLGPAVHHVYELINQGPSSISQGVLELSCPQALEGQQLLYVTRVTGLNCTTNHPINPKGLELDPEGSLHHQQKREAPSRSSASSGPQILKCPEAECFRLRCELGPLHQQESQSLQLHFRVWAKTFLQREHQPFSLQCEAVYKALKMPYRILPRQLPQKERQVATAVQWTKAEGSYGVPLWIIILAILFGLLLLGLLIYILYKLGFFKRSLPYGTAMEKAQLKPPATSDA
T1 sequence (P05556 21-798, chain 2 of 2): as the sequence (P05556 21-798, chain 2 of 2) above

binding result (α5β1 integrin [1]): binds
binding result (α4β1 integrin [2]): binds
B1: GST fusion protein of thrombin cleaved OPN (aa17-168) (ligand)
chain: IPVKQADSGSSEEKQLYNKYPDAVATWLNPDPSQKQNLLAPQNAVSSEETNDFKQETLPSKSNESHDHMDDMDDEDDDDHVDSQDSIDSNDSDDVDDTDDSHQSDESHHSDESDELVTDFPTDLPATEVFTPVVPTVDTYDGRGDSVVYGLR
notes: Stop codon after aa168, so that Arg168 is the free C-terminus; also called thrombin cleaved fragment; not shown: GST carrier and the linker of the modified pGEX-2T vector

binding result (α4β1 integrin [3]): binds
B2: GST fusion protein representing intact osteopontin (aa17-314) (ligand)
chain: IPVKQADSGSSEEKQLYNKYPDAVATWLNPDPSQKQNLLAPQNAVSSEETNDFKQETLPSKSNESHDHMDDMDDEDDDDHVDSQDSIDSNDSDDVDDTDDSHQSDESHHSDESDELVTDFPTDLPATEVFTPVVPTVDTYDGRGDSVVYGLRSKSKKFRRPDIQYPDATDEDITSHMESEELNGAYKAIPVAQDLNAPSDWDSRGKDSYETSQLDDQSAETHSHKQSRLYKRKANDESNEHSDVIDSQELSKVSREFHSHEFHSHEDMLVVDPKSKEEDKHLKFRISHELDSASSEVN
notes: Expressed in E. coli UT5600; coated on plates; also called intact OPN; full length OPN; not shown: GST carrier and the linker of the modified pGEX-2T vector

binding result (α5β1 integrin [4]): binds
binding result (α4β1 integrin [2]): binds
B3: GST fusion protein of OPN aa125-168 (ligand)
chain: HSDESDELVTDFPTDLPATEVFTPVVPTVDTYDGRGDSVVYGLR
notes: not shown: GST carrier and the linker of the modified pGEX-2T vector
